Holding throughout (test): co-IP; lysates of CHO GABABR1b/R2 cells transiently expressing KCC2-GFP constructs or GFP, CHAPS buffer; anti-GFP as the precipitating antibody; blots probed for GABABR1 (quantified against FL-KCC2 = 100%) or transferrin receptor
In assay [1] the target is KCC2 deletion mutant NTD + TMD fused to GFP (rat).
Assay [2] addresses KCC2 deletion mutant TMD + CTD fused to GFP (rat).
Assay [3] has as its target KCC2 transmembrane domain (TMD) fused to GFP (rat).

Sequence of KCC2 deletion mutant TMD + CTD fused to GFP (rat) (Q63633 whole entry, stated change not applied, the tested form may be a part): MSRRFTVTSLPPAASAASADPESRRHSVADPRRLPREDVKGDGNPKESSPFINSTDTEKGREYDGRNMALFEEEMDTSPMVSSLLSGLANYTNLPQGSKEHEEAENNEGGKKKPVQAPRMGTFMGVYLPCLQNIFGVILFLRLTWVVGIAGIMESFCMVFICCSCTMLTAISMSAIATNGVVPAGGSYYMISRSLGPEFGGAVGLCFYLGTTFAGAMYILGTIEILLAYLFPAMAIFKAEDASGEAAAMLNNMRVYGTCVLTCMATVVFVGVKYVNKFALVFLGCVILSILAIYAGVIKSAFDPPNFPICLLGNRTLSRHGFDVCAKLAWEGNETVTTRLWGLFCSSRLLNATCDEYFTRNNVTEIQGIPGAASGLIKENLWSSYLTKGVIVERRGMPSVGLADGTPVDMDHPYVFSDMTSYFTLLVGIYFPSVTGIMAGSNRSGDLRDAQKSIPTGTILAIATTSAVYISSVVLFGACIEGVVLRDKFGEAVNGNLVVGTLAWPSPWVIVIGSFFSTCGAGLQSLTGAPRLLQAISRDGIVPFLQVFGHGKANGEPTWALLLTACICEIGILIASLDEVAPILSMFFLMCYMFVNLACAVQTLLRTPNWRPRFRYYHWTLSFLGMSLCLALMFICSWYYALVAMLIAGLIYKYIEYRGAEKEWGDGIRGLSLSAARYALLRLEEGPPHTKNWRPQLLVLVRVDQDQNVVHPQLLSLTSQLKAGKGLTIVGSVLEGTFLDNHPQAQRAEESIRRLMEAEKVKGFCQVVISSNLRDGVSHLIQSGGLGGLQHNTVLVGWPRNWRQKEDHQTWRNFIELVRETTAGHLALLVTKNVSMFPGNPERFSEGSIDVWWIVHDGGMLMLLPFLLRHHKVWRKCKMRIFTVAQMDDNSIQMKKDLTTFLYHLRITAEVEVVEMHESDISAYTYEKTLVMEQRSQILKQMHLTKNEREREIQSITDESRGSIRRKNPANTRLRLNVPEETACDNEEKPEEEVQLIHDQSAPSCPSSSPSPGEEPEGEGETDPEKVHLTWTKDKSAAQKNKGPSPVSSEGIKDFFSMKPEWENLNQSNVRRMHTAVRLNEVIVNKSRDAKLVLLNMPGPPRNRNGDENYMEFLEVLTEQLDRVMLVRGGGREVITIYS
Sequence of KCC2 deletion mutant NTD + TMD fused to GFP (rat) (Q63633 1-640, stated change not applied): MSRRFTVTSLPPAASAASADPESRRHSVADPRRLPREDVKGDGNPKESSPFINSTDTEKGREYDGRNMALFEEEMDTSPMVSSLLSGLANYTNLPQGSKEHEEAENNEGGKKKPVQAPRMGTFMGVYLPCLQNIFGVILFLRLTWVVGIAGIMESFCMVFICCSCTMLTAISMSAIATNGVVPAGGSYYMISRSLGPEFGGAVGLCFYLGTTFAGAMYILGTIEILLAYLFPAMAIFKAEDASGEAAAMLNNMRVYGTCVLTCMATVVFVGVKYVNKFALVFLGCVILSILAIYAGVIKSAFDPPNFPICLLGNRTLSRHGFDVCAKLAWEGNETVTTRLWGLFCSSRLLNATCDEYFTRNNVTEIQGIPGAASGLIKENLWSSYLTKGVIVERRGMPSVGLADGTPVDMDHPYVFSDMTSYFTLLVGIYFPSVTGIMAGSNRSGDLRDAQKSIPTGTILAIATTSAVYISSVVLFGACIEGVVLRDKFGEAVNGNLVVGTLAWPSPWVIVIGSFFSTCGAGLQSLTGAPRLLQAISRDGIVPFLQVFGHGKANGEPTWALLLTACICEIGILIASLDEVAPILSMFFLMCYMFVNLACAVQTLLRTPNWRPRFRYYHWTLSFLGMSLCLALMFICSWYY
Sequence of KCC2 transmembrane domain (TMD) fused to GFP (rat) (Q63633 97-640): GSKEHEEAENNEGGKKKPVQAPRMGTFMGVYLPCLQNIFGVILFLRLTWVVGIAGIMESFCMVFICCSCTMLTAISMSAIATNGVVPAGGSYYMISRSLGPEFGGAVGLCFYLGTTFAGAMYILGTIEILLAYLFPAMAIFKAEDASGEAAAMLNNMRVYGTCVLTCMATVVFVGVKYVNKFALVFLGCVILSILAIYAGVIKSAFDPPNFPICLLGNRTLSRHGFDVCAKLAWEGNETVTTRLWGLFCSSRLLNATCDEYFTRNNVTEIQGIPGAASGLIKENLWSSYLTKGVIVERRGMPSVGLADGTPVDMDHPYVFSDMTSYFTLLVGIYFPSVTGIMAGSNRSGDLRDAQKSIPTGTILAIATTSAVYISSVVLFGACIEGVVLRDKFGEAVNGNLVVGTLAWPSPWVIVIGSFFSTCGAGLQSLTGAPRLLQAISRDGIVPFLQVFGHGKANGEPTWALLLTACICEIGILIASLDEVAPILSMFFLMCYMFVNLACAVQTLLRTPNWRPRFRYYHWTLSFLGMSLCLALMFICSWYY

On to “GABAB receptor of rat GABABR1b and GABABR2, stably expressed in CHO cells (from UniProt Q9Z0U4-2 20-960; O88871 41-940) (complex)”, for which the relative amount of GABABR detected after isolation with the GFP antibody (FL-KCC2 = 100%) in assay [1] is 68 % of FL-KCC2; in assay [2] it was 36 % of FL-KCC2; in assay [3] it was 76 % of FL-KCC2.

For the origin of these results see article PMC5452337.
